From the RNAGym collection of RNA variant scans (doi:10.7554/elife.80360) come the findings set out here.

B1: CPEB3 Ribozyme (parent)
chain: GGGGGCCACAGCAGAAGCGUUCACGUCGCGGCCCCUGUCAGAUUCUGGUGAAUCUGCGAAUUCUGCUGU

The variants in this series derive from B1. In words: self-cleavage, relative activity (ratio to wild type); higher = more cleavage; co-transcriptional.
On to GGGGGCCACAGCAGAAGCGUUCACGUCGCGGCCCCAGUCAGAUUCUGGUGAAUCUGCGAAUUCGGCUGU [U36A U64G], for which the self-cleavage was determined as 0.202. In the case of GGGGGCCACAGCAGAAGCGUUCACGUCGCGGCCCCAGUCAGAUUCUGGUGAAUCUGCGAAUUCAGCUGU [U36A U64A] it was 0.232. On to GGGGGCCACAGCAGAAGCGUUCACGUCGCGGCCCCCGUCAGAUUCUGGUGAAUGUGCGAAUUCUGCUGU [U36C C54G], for which the self-cleavage turned out to be 0.765.

Turning to GGGGGCCACAGCAGAAGCGUUCACGUCGCGGCCCCCGUCAGAUUCUGGUGAAUUUGCGAAUUCUGCUGU [U36C C54U], the self-cleavage was found to be 0.973. In the case of GGGGGCCACAGCAGAAGCGUUCACGUCGCGGCCCCCGUCAGAUUCUGGUGAAUAUGCGAAUUCUGCUGU [U36C C54A] it was 0.736; in that of GGGGGCCACAGCAGAAGCGUUCACGUCGCGGCCCCCGUCAGAUUCUGGUGAAUCUGCGUAUUCUGCUGU [U36C A59U], 0.448; in that of GGGGGCCACAGCAGAAGCGUUCACGUCGCGGCCCCCGUCAGAUUCUGGUGAAUCUGCGCAUUCUGCUGU [U36C A59C], 0.42. Under GGGGGCCACAGCAGAAGCGUUCACGUCGCGGCCCCCGUCAGAUUCUGGUGAAUCUGCGGAUUCUGCUGU [U36C A59G] stands 0.962.

Regarding GGGGGCCACAGCAGAAGCGUUCACGUCGCGGCCCCAGUCAGAUUCUGGUGAAUCUGCGAAUUGUGCUGU [U36A C63G], the self-cleavage stood at 0.213. Under GGGGGCCACAGCAGAAGCGUUCACGUCGCGGCCCCAGUCAGAUUCUGGUGAAUCUGCGAAUUUUGCUGU [U36A C63U] stands 0.185; under GGGGGCCACAGCAGAAGCGUUCACGUCGCGGCCCCAGUCAUAUUCUGGUGAAUCUGCGAAUUCUGCUGU [U36A G41U], 0.251; under GGGGGCCACAGCAGAAGCGUUCACGUCGCGGCCCCAGUCACAUUCUGGUGAAUCUGCGAAUUCUGCUGU [U36A G41C], 0.22. Regarding GGGGGCCACAGCAGAAGCGUUCACGUCGCGGCCCCCGUCAGAUUAUGGUGAAUCUGCGAAUUCUGCUGU [U36C C45A], the self-cleavage amounted to 0.865. In the case of GGGGGCCACAGCAGAAGCGUUCACGUCGCGGCCCCCGUCAGAUUGUGGUGAAUCUGCGAAUUCUGCUGU [U36C C45G] it was 0.866; in that of GGGGGCCACAGCAGAAGCGUUCACGUCGCGGCCCCCGUCAGAUUCUGGUGAAUCUGAGAAUUCUGCUGU [U36C C57A], 0.251.

As to GGGGGCCACAGCAGAAGCGUUCACGUCGCGGCCCCCGUCAGAUUCUGGUGAAUCUGGGAAUUCUGCUGU [U36C C57G], the self-cleavage was 0.3. In the case of GGGGGCCACAGCAGAAGCGUUCACGUCGCGGCCCCAGUCAGAUUCGGGUGAAUCUGCGAAUUCUGCUGU [U36A U46G], the self-cleavage was determined as 0.255. Under GGGGGCCACAGCAGAAGCGUUCACGUCGCGGCCCCAGUCAGAUUCAGGUGAAUCUGCGAAUUCUGCUGU [U36A U46A] stands 0.164.

GGGGGCCACAGCAGAAGCGUUCACGUCGCGGCCCCAGUCAGAUUCUGGUGAAUCUGCGAAUUCUGAUGU [U36A C66A]: the self-cleavage was 0.294. Under GGGGGCCACAGCAGAAGCGUUCACGUCGCGGCCCCAGUCAGAUUCUGGUGAAUCUGCGAAUUCUGUUGU [U36A C66U] stands 0.187. As for GGGGGCCACAGCAGAAGCGUUCACGUCGCGGCCCCAGUCAGAUUCUGGUGAAUCUGCGAAUUCUGCUGA [U36A U69A], the self-cleavage was determined as 0.377. In the case of GGGGGCCACAGCAGAAGCGUUCACGUCGCGGCCCCAGUCAGAUUCUGGUGAAUCUGCGAAUUCUGCUGC [U36A U69C], the self-cleavage was found to be 0.558. Under GGGGGCCACAGCAGAAGCGUUCACGUCGCGGCCCCAGUCAGAUUCUGGUGAAUCUGCGAAUUCUGCCGU [U36A U67C] stands 0.215; under GGGGGCCACAGCAGAAGCGUUCACGUCGCGGCCCCAGUCAGAUUCUGGUGAAUCUGCGAAUUCUGCGGU [U36A U67G], 0.181.

Regarding GGGGGCCACAGCAGAAGCGUUCACGUCGCGGCCCCAGUCAGAUUCUGGUGAAUCUGCGAAUUCUGCAGU [U36A U67A], the self-cleavage worked out at 0.246. Under GGGGGCCACAGCAGAAGCGUUCACGUCGCGGCCCCAGUCAGAUUCUGGUCAAUCUGCGAAUUCUGCUGU [U36A G50C] stands 0.249. Under GGGGGCCACAGCAGAAGCGUUCACGUCGCGGCCCCAGUCAGAUUCUGGUAAAUCUGCGAAUUCUGCUGU [U36A G50A] stands 0.213; under GGGGGCCACAGCAGAAGCGUUCACGUCGCGGCCCCAGUCAGAUUCUGGUGAAUCUGCGAAUACUGCUGU [U36A U62A], 0.218. In the case of GGGGGCCACAGCAGAAGCGUUCACGUCGCGGCCCCAGUCAGAUUCUGGUGAAUCUGCGAAUGCUGCUGU [U36A U62G] it was 0.249; in that of GGGGGCCACAGCAGAAGCGUUCACGUCGCGGCCCCAGUCAGAUUCUGGUGAAUCUGCGAACUCUGCUGU [U36A U61C], 0.171.

Take GGGGGCCACAGCAGAAGCGUUCACGUCGCGGCCCCAGUCAGAUUCUGGGGAAUCUGCGAAUUCUGCUGU [U36A U49G]: the self-cleavage was determined as 0.225.

On to GGGGGCCACAGCAGAAGCGUUCACGUCGCGGCCCCAGUCAGAUUCUGGAGAAUCUGCGAAUUCUGCUGU [U36A U49A], for which the self-cleavage was found to be 0.263.

On to GGGGGCCACAGCAGAAGCGUUCACGUCGCGGCCCCAGUCAGAUUCUGGUGAAUCUGCGAAUUCUCCUGU [U36A G65C], for which the self-cleavage was 0.31. Regarding GGGGGCCACAGCAGAAGCGUUCACGUCGCGGCCCCAGUCAGAUUCUGGUGAAUCUGCGAAUUCUUCUGU [U36A G65U], the self-cleavage was determined as 0.203.

With GGGGGCCACAGCAGAAGCGUUCACGUCGCGGCCCCCGUCAGAUUCUGGUGAAUCUGCGAAUUCUGGUGU [U36C C66G], the self-cleavage was 0.621. In the case of GGGGGCCACAGCAGAAGCGUUCACGUCGCGGCCCCCGUCAGAUUCUGGUGAAUCUGCGAAUUCUGAUGU [U36C C66A] it was 0.603; in that of GGGGGCCACAGCAGAAGCGUUCACGUCGCGGCCCCAGUCAGAUUCUGGUGAAUCCGCGAAUUCUGCUGU [U36A U55C], 0.181. In the case of GGGGGCCACAGCAGAAGCGUUCACGUCGCGGCCCCAGUCAGAUUCUGGUGAAUCGGCGAAUUCUGCUGU [U36A U55G] it was 0.289. Under GGGGGCCACAGCAGAAGCGUUCACGUCGCGGCCCCAGUCAGAUUCUGGUGAAUCAGCGAAUUCUGCUGU [U36A U55A] stands 0.209.
